Source: PMC7460845, “A Fungal Ascorbate Oxidase with Unexpected Laccase Activity” (International Journal of Molecular Sciences, 2020)

Columns and labels:
[1] = substrate: CCn1c(=NN=c2sc3cc(S(=O)(=O)O)ccc3n2CC)sc2cc(S(=O)(=O)O)ccc21; assay: spectrophotometric ABTS oxidation, plate reader, Lineweaver-Burk; type: biochemical, Aspergillus flavus; details: 0.1 M citrate buffer pH 3.4, 25 °C, 0.5 to 20 mM substrate, oxygen as co-substrate
[2] = substrate: O=C1O[C@H]([C@@H](O)CO)C(O)=C1O; assay: purified protein; type: biochemical, Aspergillus flavus; details: pH 5.0, 30 °C, 0.05 to 1 mM substrate, oxygen as co-substrate

B1: Af_AO1 (Aspergillus flavus NRRL3357) (protein)
chain: HLVLHDDSFQPDHILRVTAQDVNQACMDRYSVLINGSLPGPQLNIQEGKVNWIRVYNDMEDLNVTMHWHGLSAFTAPFSDGTPMASQWPIPPGHFFDYEVRPEVGYAGTYFYHSHVGFQALTAWGALIVESAQPSPYQYDEERIIALSDFFTKTDEEIENGLTSTNFTWSGETSAVLVNGQGRLATNATGSCKLAAISVEPGKTYRLRFIGATALSFVSISLESHDVLEIIEADGHYTKPVNTSYLQISSGQRYSVLLKAKTEAELQQAKSRQFYFQLTTMGRPTVLTTFAVLEYPSPTTTDLITVPVTPPLPVANITYGWLDYTLEPYYPDLDFPTVEEVTRRIIINVHQNISDRTVWLQNGYDWVETFPKSPYLVDIYAGTLDLDASYKRAIASGYAFDNQTRLFPAKMGEVLEIVWQNQGAVSNGGVENHPFHAHGRHFYDIGGGDGLYNLTENEARLKGTHPVIRDTTMLYAYRKTTTALEPSGWRAWRIRVTAAGVWMVHCHVLQHMLMGMQTAFAFGDQTAIKAQSGTPAEGYLTYGGSAYGNVTHFPPVKHFFN
notes: natural signal peptide removed, no tag; codon-optimized gene in pPicZalphaB, secreted from Pichia pastoris KM71H; model target 561 residues
Km [1]: 1890 ± 120 µM
Km [2]: 160 ± 30 µM
